Results on one molecule are retold here after PMC12756210, “Calcium signaling-mediated phosphorylation controls zinc allocation in Arabidopsis” (Stress Biology, 2025).

In one experiment the target is T1, CIPK23-His (Arabidopsis, UniProt Q93VD3 1-482).
T1 construct: amplified and cloned into pET30a; Printed both as CIPK3/9/23/26-His and as His-CIPK3/9/23/26, so the end of the tag is open; also called His-CIPK23; source: recombinant, cloned into pET30a
T1 sequence (looked up): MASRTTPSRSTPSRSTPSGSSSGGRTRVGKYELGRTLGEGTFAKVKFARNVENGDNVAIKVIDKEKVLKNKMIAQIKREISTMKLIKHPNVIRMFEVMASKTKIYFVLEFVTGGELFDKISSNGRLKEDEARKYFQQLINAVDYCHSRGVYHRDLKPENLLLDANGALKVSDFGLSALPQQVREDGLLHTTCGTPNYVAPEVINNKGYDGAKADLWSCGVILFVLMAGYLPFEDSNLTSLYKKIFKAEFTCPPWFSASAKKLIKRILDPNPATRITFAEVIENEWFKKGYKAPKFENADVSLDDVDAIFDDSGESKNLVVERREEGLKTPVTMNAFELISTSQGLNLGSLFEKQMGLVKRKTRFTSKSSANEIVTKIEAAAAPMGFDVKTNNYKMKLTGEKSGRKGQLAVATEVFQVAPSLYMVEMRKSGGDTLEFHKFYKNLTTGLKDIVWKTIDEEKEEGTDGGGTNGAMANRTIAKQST
In words: pull-down; GST-ZIP2-Loop (or GST) on glutathione beads incubated with His-CIPK3/9/23/26; eluate blotted with anti-His antibody. The note with it: both partners purified.

The target of a further experiment is T2, CIPK26-His (Arabidopsis, UniProt Q84VQ3 1-439).
T2 construct: amplified and cloned into pET30a; Printed both as CIPK3/9/23/26-His and as His-CIPK3/9/23/26, so the end of the tag is open; also called His-CIPK26; source: recombinant, cloned into pET30a
T2 sequence (looked up): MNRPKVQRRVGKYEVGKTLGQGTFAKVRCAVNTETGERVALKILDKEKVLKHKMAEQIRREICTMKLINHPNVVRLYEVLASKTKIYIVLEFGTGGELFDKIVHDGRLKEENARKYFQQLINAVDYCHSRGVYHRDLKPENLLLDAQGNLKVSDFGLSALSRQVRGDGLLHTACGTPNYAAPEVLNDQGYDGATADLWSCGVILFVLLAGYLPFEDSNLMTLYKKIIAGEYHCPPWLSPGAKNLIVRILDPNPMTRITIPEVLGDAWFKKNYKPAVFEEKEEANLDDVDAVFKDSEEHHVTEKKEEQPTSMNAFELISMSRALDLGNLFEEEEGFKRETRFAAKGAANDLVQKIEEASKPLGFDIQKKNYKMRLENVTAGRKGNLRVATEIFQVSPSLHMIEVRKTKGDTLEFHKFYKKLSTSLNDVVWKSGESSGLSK
The description is as above. The conditions noted are these: both partners purified.

B1: GST-ZIP2-Loop (domain or fragment, Arabidopsis, UniProt Q9LTH9 151-203, looked up)
chain: VAAGSNNNHVGASVGESREDDDVAVKEEGRREIKSGVDVSQALIRTSGFGDTA
notes: Zn transporter ZIP2, Arabidopsis; the largest Loop domain, residues 151-203 (451-609 bp of the CDS); Printed as GST-ZIP2-Loop and as ZIP2-Loop-GST; pGEX4T-1 normally places GST at the N-terminus (surmised); also called ZIP2-Loop-GST; source: prokaryotic fusion protein (pGEX4T-1), purified
For the molecule B1, the binding result with CIPK23-His and with CIPK26-His was “binds” throughout.
